Positions count from the first letter of the chain named. Names may count otherwise.
How the values were obtained:
[1] = biological target: the molecule itself; assay: cross-linking
[2] = biological target: the molecule itself; assay: SDS-PAGE of the tetramer
[3] = biological target: the molecule itself; assay: single-molecule fluorescence
[4] = biological target: the molecule itself; assay: single-molecule fluorescence; remark: listed apart in the source

B1: KdpFABC complex from Escherichia coli (complex)
chain 1: MSAGVITGVLLVFLLLGYLVYALINAEAF
chain 2: MAAQGFLLIATFLLVLMVLARPLGSGLARLINDIPLPGTTGVERVLFRALGVSDREMNWKQYLCAILGLNMLGLAVLFFMLLGQHYLPLNPQQLPGLSWDLALNTAVSFVTNTNWQSYSGETTLSYFSQMAGLTVQNFLSAASGIAVIFALIRAFTRQSMSTLGNAWVDLLRITLWVLVPVALLIALFFIQQGALQNFLPYQAVNTVEGAQQLLPMGPVASQEAIKMLGTNGGGFFNANSSHPFENPTALTNFVQMLAIFLIPTALCFAFGEVMGDRRQGRMLLWAMSVIFVICVGVVMWAEVQGNPHLLALGTDSSINMEGKESRFGVLVSSLFAVVTTAASCGAVIAMHDSFTALGGMVPMWLMQIGEVVFGGVGSGLYGMMLFVLLAVFIAGLMIGRTPEYLGKKIDVREMKLTALAILVTPTLVLMGAALAMMTDAGRSAMLNPGPHGFSEVLYAVSSAANNNGSAFAGLSANSPFWNCLLAFCMFVGRFGVIIPVMAIAGSLVSKKSQAASSGTLPTHGPLFVGLLIGTVLLVGALTFIPALALGPVAEYLS
chain 3: MSRKQLALFEPTLVVQALKEAVKKLNPQAQWRNPVMFIVWIGSLLTTCISIAMASGAMPGNALFSAAISGWLWITVLFANFAEALAEGRSKAQANSLKGVKKTAFARKLREPKYGAAADKVPADQLRKGDIVLVEAGDIIPCDGEVIEGGASVDESAITGESAPVIRESGGDFASVTGGTRILSDWLVIECSVNPGETFLDRMIAMVEGAQRRKTPNEIALTILLIALTIVFLLATATLWPFSAWGGNAVSVTVLVALLVCLIPTTIGGLLSAIGVAGMSRMLGANVIATSGRAVEAAGDVDVLLLDKTGTITLGNRQASEFIPAQGVDEKTLADAAQLASLADETPEGRSIVILAKQRFNLRERDVQSLHATFVPFTAQSRMSGINIDNRMIRKGSVDAIRRHVEANGGHFPTDVDQKVDQVARQGATPLVVVEGSRVLGVIALKDIVKGGIKERFAQLRKMGIKTVMITGDNRLTAAAIAAEAGVDDFLAEATPEAKLALIRQYQAEGRLVAMTGDGTNDAPALAQADVAVAMNSGTQAAKEAGNMVDLDSNPTKLIEVVHIGKQMLMTRGSLTTFSIANDVAKYFAIIPAAFAATYPQLNALNIMCLHSPDSAILSAVIFNALIIVFLIPLALKGVSYKPLTASAMLRRNLWIYGLGGLLVPFIGIKVIDLLLTVCGLV
chain 4: MSGLRPALSTFIFLLLITGGVYPLLTTVLGQWWFPWQANGSLIREGDTVRGSALIGQNFTGNGYFHGRPSATAEMPYNPQASGGSNLAVSNPELDKLIAARVAALRAANPDASASVPVELVTASASGLDNNITPQAAAWQIPRVAKARNLSVEQLTQLIAKYSQQPLVKYIGQPVVNIVELNLALDKLDE
- stoichiometry N [1]: 2

B2: KcsA T75C (natural protein)
chain: MPPMLSGLLARLVKLLLGRHGSALHWRAAGAATVLLVIVLLAGSYLAVLAERGAPGAQLITYPRALWWSVETATCVGYGDLYPVTLWGRLVAVVVMVAGITSFGLVTAALATWFVGREQERRGHFVRHSEKAAEEAYTRTTRALHERFDRLERMLDDNRR
- binding result [2]: binds

B3: KcsA Thr75 to Ala (natural protein)
chain: B2 chain with C75A
- binding result [2]: binds

B4: pig gastric H/K-ATPase (αβ protomer), FITC-modified (complex)
chain 1: not shown
chain 2: MAALQEKKSCSQRMEEFQRYCWNPDTGQMLGRTLSRWVWISLYYVAFYVVMSGIFALCIYVLMRTIDPYTPDYQDQLKSPGVTLRPDVYGEKGLDISYNVSDSTTWAGLAHTLHRFLAGYSPAAQEGSINCTSEKYFFQESFLAPNHTKFSCKFTADMLQNCSGRPDPTFGFAEGKPCFIIKMNRIVKFLPGNSTAPRVDCAFLDQPRDGPPLQVEYFPANGTYSLHYFPYYGKKAQPHYSNPLVAAKLLNVPRNRDVVIVCKILAEHVSFDNPHDPYEGKVEFKLKIQK
- stoichiometry N [3]: 2
- stoichiometry N [4]: 4

Source: paper PMC2268108 (The Journal of General Physiology, 2005)
